Data from patent US9458437B2, “Neuroprotective peptides that inhibit interaction between palmitoyl acyl transferase zinc-finger DHHC type containing 17 (zD17) and c-jun N-terminal kinase (JNK)” (The University of British Columbia, priority 2011, dated 2016).

Columns and labels:
zD17-JNK2 interaction = target: T1, zD17-JNK2 interaction (Rattus norvegicus, UniProt P49186); test: co-immunoprecipitation of zD17 with JNK2 in neuronal cultures; type: cell-based; details: NMDA
T1 construct: endogenous in cells; host or cells: primary cortical neurons of embryonic Wistar rat
Procedure: All animal experiments were approved by the Animal Care Committee of the University of British Columbia. Primary cortical cultures were prepared from Wistar rat (UBC Animal Care Centre, Vancouver, BC, Canada) brains at embryonic days 18-19. Cultures were maintained in Neurobasal medium supplemented with B27 and 0.5 mM glutamax (Invitrogen™) as described previously (Yang et al., 2009).
(§1) The protocols for protein extraction have been described previously (Yang et al., 2009). For co-immunoprecipitation, cultured cells were washed with ice-cold PBS followed by incubation with 0.5 ml Gentle Lysis Buffer (GLB) containing 25 mM Tris-HCl (pH 7.4), 2 mM EDTA, 1 mM EGTA, 10 mM NaCl, 0.5% Triton X-100 and 10% Glycerol supplemented with the Complete Protease Inhibitor Tablets (Roche Applied Science™, Indianapolis, Ind., USA) and 1 mM PMSF. Total protein concentration was determined with the BioRad™ Protein Assay kit. Lysates were first precleaned by incubating with Protein A-Sepharose beads (Roche Applied Science™) for 1 h at 4° C., followed by incubation with indicated antibodies (>16 h at 4° C.) and protein A Sepharose bead (2 h at 4° C.). Lysates of rat brain tissues were precleaned with IgG and protein A-beads. Immunoprecipitates were washed three times with GLB buffer; boiled in 2× loading buffer with 1 mM dithiothreitol (DTT) for 3 min; and analyzed with SDS-PAGE as described previously (Yang et al., 2009). The relative intensities of the bands on immunoblots were analyzed and quantified using Image J™ (NIH).

JNK1 = target: T2, JNK1 (Rattus norvegicus, UniProt P49185); test: kinase assay (KA) on JNK1 immunoprecipitated from cell lysates; type: cell-based; details: for JNK1 activity normalized to 0 h: NMDA + NIMoE
T2 construct: JNK is immunoprecipitated from the cell lysate; endogenous in cells; host or cells: rat primary neuronal cultures; JNK1 immunoprecipitated from lysate
Procedure: JNK activity was measured with an in vitro kinase assay as described elsewhere (see, for e.g.: Khatlani et al., 2007). Briefly, cell lysates were prepared and JNK was immunoprecipitated with specific antibodies. The immnoprecipitates were then resuspended in 1× kinase buffer (Cell Signaling Technology™) supplemented with 200 μM ATP and 250 μg/ml GST-c-jun (1-89), and incubated at 30° C. for 30 min. Reactions were terminated by the addition of SDS-PAGE sample buffer. Phosphorylated c-jun was resolved by SDS-PAGE and detected with anti-p-c-jun.

zD17-JNK3 interaction = zD17-JNK3 interaction (Rattus norvegicus, UniProt P49187); test: zD17-JNK3 interaction in the injured hemisphere after MCAo; type: in vivo, Sprague-Dawley rat; design: Lysates of rat brain tissues were precleaned with IgG and protein A-beads; from tissue; host or cells: brain (injured left hemisphere) of adult male Sprague-Dawley rats; details: single intravenous injection 30 min before MCAo
Procedure: as §1, with “Lysates were first precleaned by incubating with Protein A-Sepharose beads (Roche Applied Science™) for 1 h at 4° C., followed by incubation with indicated antibodies (>16 h at 4° C.) and protein A Sepharose bead (2 h at 4° C.). Lysates of rat brain tissues were precleaned with IgG and protein A-beads.” left out, “(NIH). […]” for “(NIH).”
Peptides were synthesized by PepMetric Technologies™ or GL Biochem™ (Shanghai, China). […] Injections of NIMoEscr and NIMoEsh were made, brain damage was assessed and functional evaluations performed in a double-blind manner To examine the delivery of the peptide into the brain, 5 mg/kg FITC-labelled NIMoE or only saline was intravenously injected 1 h before perfusion. […]

[1] = tested on: middle cerebral artery occlusion (MCAo); test: transient MCAo in SD rats, neurological scores; type: in vivo, Sprague-Dawley rat
Procedure: Adult male Sprague-Dawley (SD) rats weighing 250-290 g were employed for transient middle cerebral artery occlusion. Rats were anaesthetized with 5% isofluorane and maintained with 2% isofluorane in 70% N2O and 30% O2 using a face mask. 5 mg/kg ketoprofen was given pre-surgery to block pain. Rectal temperature was maintained at 37° C. during surgery with a homeothermic blanket system (Harvard Apparatus™, Holliston, Mass.). The scalp was incised at the midline and the skull was exposed. The skull was thinned with a dental drill at a region ipsilateral to the expected ischemia zone (2 mm posterior and 5 mm lateral from the bregma). […]
Peptides were synthesized by PepMetric Technologies™ or GL Biochem™ (Shanghai, China). […] Injections of NIMoEscr and NIMoEsh were made, brain damage was assessed and functional evaluations performed in a double-blind manner To examine the delivery of the peptide into the brain, 5 mg/kg FITC-labelled NIMoE or only saline was intravenously injected 1 h before perfusion. […] After rapid freezing in Tissue-Tek™ embedding medium (Sakura™, Torrance, Calif.) on dry ice, 20 μm sections were cut on a cryostat (Leica™ CM3050, Ontario, Canada) and examined for FITC fluorescence by a laser microscopy (Zeiss™, Axiovert 200). […]

T2 sequence (P49185 whole entry): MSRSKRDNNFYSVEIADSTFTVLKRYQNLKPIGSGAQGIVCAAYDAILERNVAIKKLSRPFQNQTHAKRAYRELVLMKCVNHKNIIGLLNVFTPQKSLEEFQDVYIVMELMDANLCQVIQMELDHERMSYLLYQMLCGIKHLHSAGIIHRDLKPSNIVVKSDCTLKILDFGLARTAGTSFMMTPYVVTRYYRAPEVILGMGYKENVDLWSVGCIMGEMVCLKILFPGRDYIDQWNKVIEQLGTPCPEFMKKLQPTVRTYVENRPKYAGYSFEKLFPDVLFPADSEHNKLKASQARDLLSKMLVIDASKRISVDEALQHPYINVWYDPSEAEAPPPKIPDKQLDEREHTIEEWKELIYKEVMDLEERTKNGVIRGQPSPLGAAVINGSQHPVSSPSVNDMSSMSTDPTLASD
Sequence of zD17-JNK3 interaction (P49187 whole entry): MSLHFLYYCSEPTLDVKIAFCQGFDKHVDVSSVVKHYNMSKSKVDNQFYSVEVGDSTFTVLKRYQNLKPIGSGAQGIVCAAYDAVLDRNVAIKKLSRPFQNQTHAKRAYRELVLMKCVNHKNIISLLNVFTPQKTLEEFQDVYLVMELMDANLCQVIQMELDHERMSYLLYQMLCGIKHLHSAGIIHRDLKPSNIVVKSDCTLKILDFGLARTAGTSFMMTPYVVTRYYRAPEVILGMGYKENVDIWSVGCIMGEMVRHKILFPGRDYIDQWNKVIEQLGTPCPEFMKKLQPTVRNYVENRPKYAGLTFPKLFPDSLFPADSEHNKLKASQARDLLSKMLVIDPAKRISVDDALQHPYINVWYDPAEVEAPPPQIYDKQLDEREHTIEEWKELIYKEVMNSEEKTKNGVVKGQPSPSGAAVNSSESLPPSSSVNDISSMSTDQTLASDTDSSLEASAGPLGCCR

Row | Sequence | enhancement of the JNK2-zD17 interaction (zD17-JNK2 interaction) | JNK1 activity normalized to 0 h (JNK1; 0.5 h) [%] | JNK1 activity normalized to 0 h (JNK1; 1 h) [%] | normal activation of JNK1 (JNK1; NMDA, neuronal cultures) | enhancement of the zD17-JNK3 interaction after MCAo (zD17-JNK3 interaction) | behavioural deficits evaluated with neurological scores ([1]; NIMoEsh administration, MCAo rats) | duration of improvement of behavioural performance ([1]; injected 2 h post-surgery, double-blinded)
1 | MTPLMWAAYRTHSVDPTRLL (listed as Homo sapiens) [NIMoE, peptide comprising motif-E of zD17, fused to the cell-membrane transduction domain of HIV-1 Tat for cell experiments] | eliminated the enhancement | 104.3±2.6 | 168.5±3.3 | did not inhibit |  |  | 
2 | WAAYRTHSVD (listed as Homo sapiens) [NIMoEsh, shorter 10mer of NIMoE, primarily the loop region of motif-E (zD17 196-205)] |  |  |  |  | effectively attenuated | substantially reduced | persisted over 14 days
